We go through eight molecules from PMC5433836 (Biochemistry, 2016).

Entries after “also recorded” stand apart in the source; their conditions may differ. Like-named read-outs stand apart in the source and are kept apart here. Where no end group is shown, it is not given here. The star is where a group is joined. RhodamineB = CCN(CC)c1ccc2c(-c3ccccc3C(=O)*)c3ccc(=[N+](CC)CC)cc-3oc2c1

The term Kd denotes the constant that tells how readily two partners part at equilibrium. The stoichiometry N is a count of units in the complex or per binding partner.

The target in test [1] is Par-6. The settings on record: Cdc42-GTP:Par-6; cited from earlier work.
Test [2] concerns the target Crumbs CTD (UniProt P10040). The settings on record: cited from earlier work.
The target of test [3] is disulfide-stabilized Par-6 CRIB-PDZ (CRIB-PDZ^Q144C/L164C) (D. melanogaster). Nature of the test: ITC. Background: Isothermal titration calorimetry measures the heat released or taken up as one component is titrated into another.
For test [4], the target named is Pals1 (UniProt Q8N3R9). Conditions: cited from earlier work.
Chain of Pals1 (Q8N3R9 whole entry): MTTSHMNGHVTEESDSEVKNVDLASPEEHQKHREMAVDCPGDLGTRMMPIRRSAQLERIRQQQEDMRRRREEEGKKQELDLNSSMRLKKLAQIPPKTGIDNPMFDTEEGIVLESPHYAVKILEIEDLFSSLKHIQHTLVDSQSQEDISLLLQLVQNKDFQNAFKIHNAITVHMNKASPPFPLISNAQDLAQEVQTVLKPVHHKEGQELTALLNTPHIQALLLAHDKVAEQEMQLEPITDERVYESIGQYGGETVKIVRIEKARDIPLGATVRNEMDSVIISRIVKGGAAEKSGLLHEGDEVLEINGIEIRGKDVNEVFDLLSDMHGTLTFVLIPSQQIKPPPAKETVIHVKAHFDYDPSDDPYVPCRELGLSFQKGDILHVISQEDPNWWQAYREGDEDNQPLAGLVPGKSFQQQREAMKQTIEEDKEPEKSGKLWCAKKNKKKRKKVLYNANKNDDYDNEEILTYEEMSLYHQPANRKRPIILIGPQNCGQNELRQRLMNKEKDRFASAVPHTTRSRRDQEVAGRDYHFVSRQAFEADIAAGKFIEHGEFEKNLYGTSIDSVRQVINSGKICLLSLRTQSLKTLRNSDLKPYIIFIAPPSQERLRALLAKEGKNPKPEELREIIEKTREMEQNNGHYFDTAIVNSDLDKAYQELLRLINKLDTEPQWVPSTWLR
For test [5], the system named is Par-6 PDZ^156–255. In words: 1H-15N HSQC NMR titration of PDZ^156–255 with peptide. In kind it is binding, D. melanogaster. Conditions: 25 °C, 0.1–0.25 mM 15N-labeled protein, 90% H2O/10% D2O, pH 5.5.
The target in test [6] is Cdc42:CRIB-PDZ^130–255 complex (Cdc42 loaded with GMPPNP) ( | D. melanogaster, UniProt P60953 1-191; O97111 130-255). Nature of the test: fluorescence polarisation. (In fluorescence polarisation assays a small probe gives low polarisation when free and higher when bound to something large.)
In test [7] the target is Par-6 CRIB-PDZ module (CRIB-PDZ^130–255) (D. melanogaster) (UniProt O97111). In words: fluorescence polarisation.
Test [8] addresses disulfide-stabilized Par-6 CRIB-PDZ (CRIB-PDZ^Q144C/L164C) (D. melanogaster). Nature of the test: fluorescence polarisation.
The target of test [9] is Par-6 PDZ domain (residues 156–255) (D. melanogaster) (UniProt O97111). In words: fluorescence polarisation.
For test [10], the target named is Par-6 CRIB-PDZ module (CRIB-PDZ^130–255) (D. melanogaster) (UniProt O97111). Nature of the test: fluorescence polarisation. The source holds these as a separate data set.

Chain of Crumbs CTD (P10040 2110-2146): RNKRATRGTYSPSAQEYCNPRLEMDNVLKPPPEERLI

On to “Cdc42-GTP: monomeric GTPase Cdc42 bound to GTP; binds the CRIB module of Par-6”, for which, in test [1], the Kd is ~0.05 µM and the binding energy was ~ 10 kcal/mol.

As to Pals1 PDZ-SH3-GK (from UniProt Q8N3R9), the Kd in [2] was 0.1 µM.

Take VKESLV peptide: in [3], the Kd stood at 17 µM, the dH was -3.4 kcal/mol and the stoichiometry N was 1.09.

Take Par-6 CRIB-PDZ (from UniProt Q9NPB6): the dissociation constant Kd in [4] was 6 µM.

Take LPPEERLI [LPPEERLI]: the “HSQC titration behaviour / binding mode” value in [5] was “Significant shifts were observed for many amino acids in and near the PDZ ligand binding cleft; also recorded: consistent with binding at a second, low affinity site”.

B1: N-terminally Rhodamine B-labeled VKESLV peptide (peptide)
peptide: RhodamineB-VKESLV
As to B1, the Kd in test [6] is 6 µM; in test [7], 54 µM; in [8], 13 µM; in test [9] it was 72 µM.

B2: N-terminally Rhodamine B-labeled GEERLI peptide (peptide)
peptide: RhodamineB-GEERLI
On to B2, for which the Kd was 7.2 µM in [10]; 1.2 µM in test [6]; 7.3 µM in test [7]; 2.5 µM in [8]; 12 µM in test [9].

B3: modified Crumbs peptide lacking the proline residues (GEERLI) (peptide)
peptide: GEERLI
As to B3, in test [3], the Kd amounted to 1.9 µM, the dH is -7.21 kcal/mol and the stoichiometry N was found to be 1.05.
